Test results as given in US8871276B2, “Beta-casein assemblies for mucosal delivery of therapeutic bioactive agents” (Technion Research and Development Foundation Ltd., priority 2008, dated 2014).

What was measured:
Assay type in all cases: physicochemical
[1] = Analytical ultracentrifugation (sedimentation equilibrium)
Experimental: Sedimentation equilibrium experiments were performed at 24° C. using a Beckman Optima XL-A (Palo Alto, Calif.) analytical centrifuge at 6,000, 10,000, and 12,000 rpm for the low-pH solutions and at 4,000, 6,000, and 8,000 rpm for the pH 7.0 solutions. Data were collected at 280 nm. The β-casein solutions were studied at concentrations ranging from 0.2 to 10.0 mg/mL at pH 2.6 and from 0.2 to 2 mg/mL at pH 7.0 and an ionic strength of 0.1. […] The average apparent molecular weight of the micelles at the various protein concentrations was calculated following methods well known in the art (The partial specific volume νj of the solute was taken to be […], and a solution density F of 1.0044 g/cm^3 was measured). At β-casein concentrations of 2 mg/mL and above under low pH conditions, the plot of the natural logarithm of the measured absorbance versus the square of the radius from the axis of rotation was not linear. To estimate Nagg, the limiting slope toward the outer edge of the sample cell was used to provide d ln(c)/dr^2. The molecular weight calculated using this slope was divided by the monomer molecular weight calculated from the β-casein amino acid sequence (24,000).
To determine the aggregation number of the micelles at pH 2.6, analytical ultracentrifugation experiments were conducted at various protein concentrations and at […] and IS of 0.002. Sample data are plotted in FIG. 7, showing data with the protein concentration at 5 mg/ml, and ionic strength (IS) of 0.002. […] The aggregation numbers calculated from the slope of this line confirmed that the protein is monomeric at these concentrations. At concentrations higher than the CMC, two regions could be defined, indicating the presence of two protein populations: monomers at relatively short radii (i.e., in FIG. 7 at r<6.5 or r2<43) and assemblies at large radii. The micelles at pH 2.6 are characterized by a small aggregation number of 3 around the CMC and 6 at higher concentrations. In contrast, Nagg of 20 was measured at pH 7.0 and ionic strength 0.1. […]

[2] = Small angle X-ray scattering (SAXS) of micelles; details: 1 wt % β-casein, empty or loaded 1:8 protein:celecoxib, pH ~7
[3] = Density measurements of β-casein solutions (density meter DMA 5000); details: 20 mg/ml β-casein, pH 2.6, lactic acid solution
Experimental: The specific gravity of the solvents and the protein solutions was measured by a density meter DMA 5000 from Anton-Paar at various temperatures. These measurements enabled an accuracy of six digits.
Density measurements of the β-casein solutions at pH 2.6 as a function of temperature are summarized in Table 1 Density measurements were performed using a density meter DMA 5000 from Anton-Paar, reaching an accuracy of six digits.

B1: β-casein: bovine β-casein self-assembled into unloaded micelles in acidic or neutral buffer (protein, UniProt P02666 16-224, looked up)
Beta-casein: RELEELNVPGEIVESLSSSEESITRINKKIEKFQSEEQQQTEDELQDKIHPFAQTQSLVYPFPGPIPNSLPQNIPPLTQTPVVVPPFLQPEVMGVSKVKEAMAPKHKEMPFPKYPVEPFTESQSLTLTDVENLHLPLPLLQSWMHQPHQPLPPTVMFPPQSVLSLSQSKVLPVPQKAVPYPQRDMPIQAFLLYQEPVLGPVRGPFPIIV
modifications: self-assembled micelles
notes: bovine β-casein self-assembled into unloaded micelles in acidic or neutral buffer
Aggregation number (ultracentrifugation) ([1]; pH 2.6, around the CMC): 3
Aggregation number (ultracentrifugation) ([1]; pH 2.6, concentrations higher than the CMC, 24-25 °C): 6
Nagg (ultracentrifugation) ([1]; pH 7.0, ionic strength 0.1): 20
Density [2]: 1.23 g/mL
Solution density ([3]; 4 °C): 1.01 g/mL
Solution density ([3]; 16 °C): 1.009 g/mL
Solution density ([3]; 25 °C): 1.007 g/mL
Solution density ([3]; 40 °C): 1.002 g/mL
